Changes are numbered by the printed parent chain.
B1: DNA-dependent activator of interferon-regulatory factors (DAI), wild-type full-length murine (other, mouse, UniProt Q9QY24 1-411, looked up)
chain: MAEAPVDLSTGDNLEQKILQVLSDDGGPVKIGQLVKKCQVPKKTLNQVLYRLKKEDRVSSPEPATWSIGGAASGDGAPAIPENSSAQPSLDERILRFLEANGPHRALHIAKALGMTTAKEVNPLLYSMRNKHLLSYDGQTWKIYHSRQEGQDIAHSGVTQESPAIICQHNPVNMICQQGANSHISIANSNAIQIGHGNVIVREKACGEPGPRTSHPLPLAWDASAQDMPPVAHGAQYIYMDKSLLQQVQLGHHNEMSLVGDAGKHPSYSFSDSPPEVSTTTADPGASFNMQTFEPGPHPEGDTVQTVHIKSCFLEDATIGNGNKMTIHLRSKGEVMESGDSEEPKKEDTGTSSEATPPRSCQHTPSDSMLPTSELRAMALGDSSPQTTEPVLREHEVQDIESSQDTGLSKQ
notes: also called ZBP1; DLM-1
B2: murine DAI with mutant RHIM domain (amino acids 192-195 IQIG to AAAA) (other, mouse, UniProt Q9QY24 1-411, looked up)
chain: B1 chain with I192A, Q193A, I194A, G195A
notes: also called DAI mutRHIM

Columns and labels:
[1] = biological target: T1, receptor-interacting serine/threonine-protein kinase 3 (RIPK3), murine (mouse, UniProt Q9QZL0 1-486); test: RIPK3 immunoprecipitated from PR8-infected wild-type MEFs, immunoblot for DAI (FIG. 13A); also seen with re-expressed wild type DAI (FIG. 13D)
T1 construct: Endogenous protein of MEFs, pulled down with anti-RIPK3 antibody; also called RIP3
Protocol: FIGS. 13A through 13F show DAI is required for IAV induced formation of RIPK3-containing necrosome complex. […] In parallel, wild-type (WT), zbp1^{-/-}, and ripk3^{-/-} MEFs were treated with […] and phosphorylated MLKL. […] In parallel, reconstituted cells were treated with TCZ and examined for expression of phosphorylated p MLKL. […] Whole-cell extract (5% input) was examined in parallel for RIPK3, DAI and IAV NS1 proteins.

[2] = biological target: T1, receptor-interacting …; test: anti-RIPK3 immunoprecipitation from PR8-infected reconstituted zbp1-/- MEFs, immunoblot (FIG. 13D)

T1 sequence (Q9QZL0 whole entry): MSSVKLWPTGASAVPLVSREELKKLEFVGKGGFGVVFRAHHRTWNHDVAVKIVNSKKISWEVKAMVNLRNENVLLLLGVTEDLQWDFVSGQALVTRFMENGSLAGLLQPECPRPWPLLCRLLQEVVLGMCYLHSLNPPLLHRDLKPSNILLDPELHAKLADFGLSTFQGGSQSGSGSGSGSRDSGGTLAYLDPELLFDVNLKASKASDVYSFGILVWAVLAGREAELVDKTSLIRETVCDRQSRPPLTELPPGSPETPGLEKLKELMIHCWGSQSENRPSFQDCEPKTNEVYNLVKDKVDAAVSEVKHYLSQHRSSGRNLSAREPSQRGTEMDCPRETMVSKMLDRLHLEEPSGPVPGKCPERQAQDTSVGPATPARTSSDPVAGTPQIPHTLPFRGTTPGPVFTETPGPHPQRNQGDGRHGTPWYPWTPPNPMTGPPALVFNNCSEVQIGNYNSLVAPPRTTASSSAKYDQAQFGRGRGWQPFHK

Binder | binding result [1] | binding result [2]
B1 | binds | –
B2 | – | no binding

— US20190211359A1 (INSTITUTE FOR CANCER RESEARCH D B A THE RESEARCH INSTITUTE …, published 2019)
